T1: NgBR (Homo sapiens, UniProt Q96E22)
T1 sequence (Q96E22 1-293): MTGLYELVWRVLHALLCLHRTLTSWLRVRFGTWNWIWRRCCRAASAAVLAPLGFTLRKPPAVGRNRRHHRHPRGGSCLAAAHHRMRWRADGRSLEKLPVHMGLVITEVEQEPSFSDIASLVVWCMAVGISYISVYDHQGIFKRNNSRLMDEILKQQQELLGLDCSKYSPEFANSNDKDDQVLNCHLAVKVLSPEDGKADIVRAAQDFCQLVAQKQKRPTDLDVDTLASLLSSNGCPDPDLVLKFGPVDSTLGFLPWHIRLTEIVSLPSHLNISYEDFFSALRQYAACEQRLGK


Tests used:
Endothelial cells = assay: Am-Nogo-B-induced migration of endothelial cells, inhibition by NgBR ectodomain peptides or fusion protein; assay type: cell-based; conditions: peptide 200 nM, Am-Nogo-B 100 nM
Method: Cell migration was examined in modified Boyden chambers using 10 nM each of purified recombinant AP, AP fusion of Nogo-66 (AP-Nogo-66) or Am-Nogo-B. The transwell inserts (Costar transwell inserts; Corning) were coated with a solution of 0.1% gelatin (Sigma) in PBS at 4° C. overnight and then air-dried. VEGF at 50 ng/mL (1.1 nM) or recombinant Am-Nogo-B at various concentrations dissolved in medium 199 containing 0.1% BSA was added in the bottom chamber of the Boyden apparatus. HUVEC (200,000 cells) suspended in a 100 μL aliquot of medium 199 containing 0.1% BSA was added to the upper chamber. After 5 hours incubation, cells on both sides of the membrane were fixed and stained with a Diff-Quik staining kit (Baxter Healthcare, Miami, Fla.). The average number of cells from five randomly chosen high-power (×400) fields on the lower side of the membrane was counted.
Endothelial cells were incubated with vehicle (control) of one of peptides P1-P4 (200 nM each) in the presence of Am-Nogo-B (100 nM).
Similarly, treatment of endothelial cells with mFc-ecto, but not mFc, blocked Am-Nogo-B-induced cell migration (FIG. 35).

HUVEC = assay: Binding of AP fusion proteins to the surface of HUVEC; parameters: species or system human; conditions: HUVEC (FIGS. 12, 15)
Method: (§1) To detect AP-Am-Nogo-B binding, cultures were washed with Hanks' balanced salt solution (HBSS) containing 20 mM HEPES, pH 7.5, and 1 mg/mL BSA (HBH). The plates were then incubated with AP-Am-Nogo-B in DMEM containing 20 mM Hepes, pH 7.5, and 1 mg/mL BSA for 2 hours at 4° C. The bound AP-Am-Nogo-B was detected by using the Blue Substrate kit (Vector Laboratories). The blue staining was examined by using the ODYSSEY Infrared Imaging System (Li-Cor, Lincoln, Nebr.) and confirmed by microscopy. Alternatively, the bound AP-Am-Nogo-B was extracted with Triton X-100, and AP activity was colorimetrically quantified by using p-nitrophenyl phosphate (Sigma) as substrate after heat inactivation of endogenous AP. Non-specific binding was determined by measuring binding in the presence of a 100-fold molar excess of recombinant Am-Nogo-B lacking the AP fusion protein. Specific binding was determined by subtracting the non-specific binding from total binding. For determination of apparent Kd, the binding of AP-Am-Nogo-B was measured in triplicate as described above and the Kd value was quantified by using the Scatchard plot program of GraphPad PRISM (one-site binding, linear regression) using the ratio of bound ligand to free ligand as the y axis and bound ligand (pM) as the x axis.

NgBR = target: T1, NgBR; assay: AP fusion protein binding to CHO cells expressing NgBR; parameters: an isolated cDNA encoding NgBR is 2,636 base pairs encoding an open reading frame of 293 amino acids; expressed in transfected cells; conditions: CHO cells expressing NgBR (FIGS. 11, 14)
Method: as §1
A recombinant AP-Am-Nogo-B fusion protein was used to screen a cDNA expression library from human heart (500,000 independent clones) transfected into COS or CHO cells using Lipofectamine 2000 (Invitrogen). COS-7 cells were cultured in high-glucose DMEM with 10% FBS. CHO cells were cultured in MEM-α with 5% FBS.

Molecule | Am-Nogo-B-induced migration of endothelial cells in presence of peptide (Endothelial cells) | surface binding of AP fusion domains to HUVEC (HUVEC) | surface binding of AP fusion domains to NgBR-expressing cells (NgBR)
P2: NgBR ectodomain peptide LAPLGFTLRKPPAVGRNRRHHRHPRGGSCL (SEQ ID NO: 14) (listed as Homo sapiens) | effectively reduced |  | 
P4: NgBR ectodomain peptide ADGRSLEKLPVHMGLVITEVEQEPSFSD (SEQ ID NO: 16) (listed as Homo sapiens) | to a lesser extent |  | 
PP2: truncated version of P2, TLRKPPAVGRNRRHHRHPRG (SEQ ID NO: 18) (listed as Homo sapiens) | nearly identical to that of P2 |  | 
scrambled version of P2: scrambled P2 control PGRHLKPSRFNARLHGPCRVLRAHGPLTRG (SEQ ID NO: 17) (scrambled version of SEQ ID NO 14) [reference compound] | did not block |  | 
AP-Nogo-B (amino acids 1-180): AP fusion with amino acids 1-180 of Nogo-B (protein, left off: large carriers, AP fusion with amino acids 1-180 of Nogo-B) MEDLDQSPLVSSSDSPPRPQPAFKYQFVREPEDEEEEEEEEEEDEDEDLEELEVLERKPAAGLSAAPVPTAPAAGAPLMDFGNDFVPPAPRGPLPAAPPVAPERQPSWDPSPVSSTVPAPSPLSAAAVSPSKLPEDDEPPARPPPPPPASVSPQAEPVWTPPAPAPAAPPSTPAAPKRRG |  | did not bind | did not bind
AP-Nogo-A (59-172): AP fusion with biologically active domain 59-172 of Nogo-A (protein, left off: large carriers) PAAGLSAAPVPTAPAAGAPLMDFGNDFVPPAPRGPLPAAPPVAPERQPSWDPSPVSSTVPAPSPLSAAAVSPSKLPEDDEPPARPPPPPPASVSPQAEPVWTPPAPAPAAPPST |  | did not bind | did not bind
Ap-Nogo-B (61-200): AP fusion with amino acids 61-200 of Nogo-B (protein, left off: large carriers, AP fusion with amino acids 61-200 of Nogo-B) AGLSAAPVPTAPAAGAPLMDFGNDFVPPAPRGPLPAAPPVAPERQPSWDPSPVSSTVPAPSPLSAAAVSPSKLPEDDEPPARPPPPPPASVSPQAEPVWTPPAPAPAAPPSTPAAPKRRGSSGSVVVDLLYWRDIKKTGV |  | did | did

Source: patent US8084228B2, “Nogo-B receptor antagonists” (Yale University, priority 2006, dated 2011)
